# Source: publication PMC3741172
# Target: Reelin from frontal cortex of non-demented (ND) subjects (human (endogenous in frontal cortex)) (UniProt P78509)
# Assay: native gel or EMSA; blue native-PAGE of human frontal cortex extracts in 25 mM Bis-Tris pH 7.0, 0.5% DDM, 20% glycerol; samples not boiled; anti-Reelin immunoblot
substance,measurement,value
Reelin from frontal cortex of non-demented (ND) subjects (from UniProt P78509 26-3460) (natural protein),stoichiometry N,2
